Laboratory results as given in patent US20230227527A1 (published 2023).
Numbering of substitutions follows the chain as printed.

T1: peptide on HLA-A*02:01 (human)
T1 peptide: SLGGLLTMV

T2: EBV LMP2 peptide on HLA-A*02:01 (human)
T2 peptide: CLGGLLTMV

B1: L208 (TCR, V domains shown)
Valpha: KQEVTQIPAALSVPEGENLVLNCSFTDSAIYNLQWFRQDPGKGLTSLLLIQSSQREQTSGRLNASLDKSSGRSTLYIAASQPGDSATYLCAVLMDSNYQLIWGAGTKLIIKP
Vbeta: DAGITQSPRYKITETGRQVTLMCHQTWSHSYMFWYRQDLGHGLRLIYYSAAADITDKGEVPDGYVVSRSKTENFPLTLESATRSQTSVYFCASSEDGMNTEAFFGQGTRLTVV
B2: L11-3 (protein)
chain 1: GQQVMQIPQYQHVQEGEDFTTYCNSSTTLSNIQWYKQRPGGHPVFLIQLVKSGEVKKQKRLTFQFGEAKKNSSLHITATQTTDVGTYFCADPDGLIFGQGTELSVKP
chain 2: DAGVIQSPRHEVTEMGQEVTLRCKPISGHNSLFWYRQTMMRGLELLIYFNNNVPIDDSGMPEDRFSAKMPNASFSTLKIQPSEPRDSAVYFCASSLGAGAGYGYTFGSGTRLTVV
B3: L11-6 (protein)
chain 1: GIQVEQSPPDLILQEGANSTLRCNFSDSVNNLQWFHQNPWGQLINLFYIPSGTKQNGRLSATTVATERYSLLYISSSQTTDSGVYFCAVDGGNKLVFGAGTILRVKS
chain 2: B2 chain 2 with A100S, Y102W, G103E, Y104Q, T105Y, S108P, V115T

Columns and labels:
[1] = target: T1, peptide on HLA-A*02:01; assay: intracellular IFN-gamma; peptide titration on APCs, E:T 1:1, overnight; FIG. 6F; full-length, on cells
[2] = target: T2, EBV LMP2 peptide on HLA-A*02:01; assay: as above
[3] = target: T1, peptide on HLA-A*02:01; assay: intracellular IFN-gamma; peptide titration on APCs, E:T 1:1, overnight; a different experiment, FIG. 6G; full-length, on cells
[4] = target: T2, EBV LMP2 peptide on HLA-A*02:01; assay: as above
[5] = target: EBV LMP2 peptide on HLA-A11 (human); assay: intracellular IFN-gamma; peptide titration on K562-A11, E:T 1:1, overnight; FIG. 9; full-length, on cells; conditions: chains Valpha:Vbeta

| Binder | EC50 of peptide [1] | EC50 of peptide [2] | EC50 of peptide [3] | EC50 of peptide [4] | EC50 of peptide [5] |
| --- | --- | --- | --- | --- | --- |
| B1 | 0.0183 µg/mL | 0.0392 µg/mL | 0.125 µg/mL | 0.261 µg/mL |  |
| B2 |  |  |  |  | 0.3 nM |
| B3 |  |  |  |  | 2 nM |
